The record followed here is US20220009979A1 (Alexion, published 2022).

The experiment addresses T1, Purified C3d (Quidel, San Diego, Calif.) (UniProt P01024 1002-1303, biotinylated via sulfo-NHS-LC linkage).
T1 construct: domain: C3d; also called immobilized C3d
The experiment in a line: Octet BLI; biotinylated C3d immobilized on streptavidin biosensors, construct in solution at 2 uM, 600 s association, 1200 s dissociation. (In BLI a coated tip is dipped into the sample, and binding shifts an interference pattern.)

As usually defined, the Kd is the free concentration of one partner at which half of the binding sites on the other are occupied at equilibrium, for simple one-to-one binding. Low values mean tighter binding, high ones weaker binding. One may read the koff as the first-order rate constant of dissociation. Higher therefore signals a short-lived complex. One may read the kon as a measure of how fast the partners come together. Higher therefore signals faster complex formation.

T1 sequence (P01024 1002-1303 limits assumed): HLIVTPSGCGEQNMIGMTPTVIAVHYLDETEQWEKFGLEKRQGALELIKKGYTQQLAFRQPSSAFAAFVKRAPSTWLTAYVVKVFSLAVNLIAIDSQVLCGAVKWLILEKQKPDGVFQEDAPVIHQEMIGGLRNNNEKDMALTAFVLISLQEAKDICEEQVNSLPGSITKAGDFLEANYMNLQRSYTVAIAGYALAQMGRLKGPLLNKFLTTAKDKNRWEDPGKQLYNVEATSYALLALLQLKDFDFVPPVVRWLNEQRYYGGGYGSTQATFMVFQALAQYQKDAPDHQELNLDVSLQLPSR

B1: Compound AQ (Fc fusion)
chain: ISCGSPPPILNGRISYYSTPIAVGTVIRYSCSGTFRLIGEKSLLCITKDKVDGTWDKPAPKCEYFNKYSSCPEPIVPGGYKIRGSTPYRHGDSVTFACKTNFSMNGQKSVWCQANNMWGPTRLPTCVSVFPGGGGSDAAVECPPCPAPPVAGPSVFLFPPKPKDTLMISRTPEVTCVVVDVSQEDPEVQFNWYVDGVEVHNAKTKPREEQFNSTYRVVSVLTVLHQDWLNGKEYKCKVSNKGLPSSIEKTISKAKGQPREPQVYTLPPSQEEMTKNQVSLTCLVKGFYPSDIAVEWESNGQPENNYKTTPPVLDSDGSFFLYSRLTVDKSRWQEGNVFSCSVMHEALHNHYTQKSLSLSLGK
B1: the Kd turned out to be 679 nM, the koff was 0.189 s⁻¹ and the kon came out at 278000 M⁻¹ s⁻¹.

B2: Compound AP (Fc fusion)
chain: VECPPCPAPPVAGPSVFLFPPKPKDTLMISRTPEVTCVVVDVSQEDPEVQFNWYVDGVEVHNAKTKPREEQFNSTYRVVSVLTVLHQDWLNGKEYKCKVSNKGLPSSIEKTISKAKGQPREPQVYTLPPSQEEMTKNQVSLTCLVKGFYPSDIAVEWESNGQPENNYKTTPPVLDSDGSFFLYSRLTVDKSRWQEGNVFSCSVMHEALHNHYTQKSLSLSLGKGGGGAGGGGAGGGAGGGGSEDCNELPPRRNTEILTGSWSDQTYPEGTQAIYKCRPGYRSLGNVIMVCRKGEWVALNPLRKCQKRPCGHPGDTPFGTFTLTGGNVFEYGVKAVYTCNEGYQLLGEINYRECDTDGWTNDIPICEVVKCLPVTAPENGKIVSSAMEPDREYHFGQAVRFVCNSGYKIEGDEEMHCSDDGFWSKEKPKCVEISCKSPDVINGSPISQKIIYKENERFQYKCNMGYEYSERGDAVCTESGWRPLPSCEEKS
With B2, the binding result is listed as “no binding (tested: 2 uM)”.

B3: Compound AC (Fc fusion)
chain: ISCGSPPPILNGRISYYSTPIAVGTVIRYSCSGTFRLIGEKSLLCITKDKVDGTWDKPAPKCEYFNKYSSCPEPIVPGGYKIRGSTPYRHGDSVTFACKTNFSMNGQKSVWCQANNMWGPTRLPTCVSVFPGGGGSDAAVECPPCPAPPVAGPSVFLFPPKPKDTLMISRTPEVTCVVVDVSQEDPEVQFNWYVDGVEVHNAKTKPREEQFNSTYRVVSVLTVLHQDWLNGKEYKCKVSNKGLPSSIEKTISKAKGQPREPQVYTLPPSQEEMTKNQVSLTCLVKGFYPSDIAVEWESNGQPENNYKTTPPVLDSDGSFFLYSRLTVDKSRWQEGNVFSCSVMHEALHNHYTQKSLSLSLGKGGGGAGGGGAGGGAGGGGSEDCNELPPRRNTEILTGSWSDQTYPEGTQAIYKCRPGYRSLGNVIMVCRKGEWVALNPLRKCQKRPCGHPGDTPFGTFTLTGGNVFEYGVKAVYTCNEGYQLLGEINYRECDTDGWTNDIPICEVVKCLPVTAPENGKIVSSAMEPDREYHFGQAVRFVCNSGYKIEGDEEMHCSDDGFWSKEKPKCVEISCKSPDVINGSPISQKIIYKENERFQYKCNMGYEYSERGDAVCTESGWRPLPSCEEKS
B3 had a Kd of 744 nM, a koff of 0.18 s⁻¹ and a kon of 242000 M⁻¹ s⁻¹.
